Assay results published in patent US12201679B2, “Epitope-targeted peptide immunostimulants” (priority 2019, dated 2025).
Entries after “also recorded” stand apart in the source; their conditions may differ. Ends that are not written are not given here.

Key:
[1] = tested on: K. pneumoniae cells (strain BAA 1705); test: Gentamicin protection assay: phagocytosis and opsonophagocytic killing (OPK) by macrophages; assay type: cell-based, Klebsiella pneumoniae; settings: 1 h, FIG. 7B
Protocol: It also tested whether DNP-conjugated EPIs could promote the opsonophagocytic killing (OPK) of K. pneumoniae by macrophages. This was tested by using an OPK assay. Briefly, K. pneumoniae cells were treated with EPI and then anti-DNP antibody before being exposed to macrophages for either 6 or 24 hours. During this incubation period, macrophages that recognize K. pneumoniae cells will phagocytose them, and phagocytosed bacteria will remain viable for up to 6 hours, but within 24 hours are rendered inviable by OPK. Thus, macrophages were isolated after 6 and 24 hours of incubation with K. pneumoniae, lysed them, and plated and grew the lysate, which yielded bacterial colonies that reflect the phagocytosis (at 6 hrs) or OPK (at 24 hrs) of bacteria.
Given that cy(LLFFF)-DNP (SEQ ID NO:5) recruits antibodies to K. pneumoniae surfaces, it was expected that K. pneumoniae opsonized in this manner would be more susceptible to phagocytosis by macrophages. AR-PCC-driven phagocytosis and OPK were quantified by a gentamicin protection assay, as depicted in FIG. 7A. For this assay, K. pneumoniae cells (strain BAA 1705) were treated with cy(LLFFF)-DNP (SEQ ID NO:5), opsonized by anti-DNP antibodies, and then incubated with murine bone-marrow-derived macrophages (BMDMs). BMDMs were subsequently exposed to a solution containing gentamicin, to which K. pneumoniae strain BAA 1705 is susceptible, to kill any extracellular bacteria. Phagocytosed bacteria remain viable inside BMDMs for at least 1 h, yet are rendered inviable after 24 h by OPK (FIG. 13). Macrophages harvested at 1 h and 24 h were lysed and plated to generate bacterial colonies, which were enumerated to quantify phagocytosis and OPK.
Klebsiella pneumoniae BAA1705 was treated with DNP-PCCs followed by incubation with anti-DNP antibody, as described above in the “Cell-Based ELISAs” section. These opsonized bacteria were then used to infect BMDMs at a multiplicity of infection of 50 for 0.5 h at 37° C. Bacteria were then washed by using RPMI 1640 Media and BMDMs were left in cell culture medium containing gentamicin (100 μg/ml). After 1 h and 24 h BMDMs were washed to remove gentamicin and intracellular bacteria were harvested by lysing BMDMs in RPMI media containing 0.2% Triton X 100. Bacterial CFUs were enumerated by plating onto LB agar. Bacterial counts at 1 h indicated the degree of opsonization while those at 24 h served as a measure of microbicidal activity of macrophages. For these measurements, anti-MrkA antibody and K. pneumoniae antiserum were used at dilutions of 5 μg/mL each.

MrkA protein = MrkA protein (Klebsiella pneumoniae, UniProt P12267); test: Sandwich ELISA, MrkA binding in mouse sera; settings: MrkA 250 nM in 10 and 100% mouse sera
Excerpt: By comparison, the addition of polyarginine tags reduced the IP to near 40% without substantial loss in MrkA avidity (three leftmost data points in FIG. 4B).

[2] = tested on: K. pneumoniae (strains BAA 1705 & 2146); test: Whole-cell ELISA, biotinylated PCC, multidrug-resistant K. pneumoniae; assay type: cell-based, Klebsiella pneumoniae; settings: whole-cell ELISA, FIG. 5C
Protocol: Detection of the binding of biotinylated PCCs to bacterial surface was performed as follows. 10^8 bacteria from a culture grown overnight were used for each test. […] After washing thrice with PBS to remove unbound PCCs, bacteria were incubated with Streptavidin-HRP (1:1000) for 1 h at 37° C. Bacteria were washed thoroughly and the TMB reagent was added until visible coloration was observed. The reaction was quenched using 2N H2SO4 and absorbance was measured at 450 nm.

[3] = Isocratic point, elution from C18 prep-scale column; assay type: physicochemical
Protocol: PCC compounds were purified on a Waters Autopurification system, which isolated compounds based on MS peaks corresponding to protonated [M+1H]^+ and [M+2H]^2+, and/or sodium adducts [M+Na]^+ and [M+2Na]^2+. The isocratic points of PCCs were determined based on the elution of the compound from a C18 prep-scale column. Synthetic epitopes were either purified on the Waters Autopurification System, or by semi-preparative HPLC and then using matrix-assisted laser desorption/ionization mass spectroscopy to identify fractions with the desired m/z ratio. The resulting peptides were lyophilized, the yield determined by mass difference or UV-visible absorbance, and resuspended at a concentration of up to 10 mM peptide in DMSO. Peptides were stored at −80° C. before thawing for each use.

[4] = biological target: full-length recombinant MrkA protein (Klebsiella pneumoniae, UniProt P12267); assay type: binding; settings: ratio of ELISA signals, FIG. 4B
Excerpt: HPraGly is present before X1 in each peptide and Az4 follows X5 in each peptide.

Sequence of MrkA protein (P12267 23-202): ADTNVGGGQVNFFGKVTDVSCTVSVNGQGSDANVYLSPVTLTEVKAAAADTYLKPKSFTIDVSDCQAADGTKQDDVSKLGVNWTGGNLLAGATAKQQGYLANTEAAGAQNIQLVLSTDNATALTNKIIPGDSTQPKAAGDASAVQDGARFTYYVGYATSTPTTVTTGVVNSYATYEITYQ
Sequence of full-length recombinant MrkA protein (P12267 23-202): as above

cy(LLFFF)+R6 (LLFFFRRRRRR; also: cyclic over residues 1-5, ring closure not given here)
phagocytosis at 1 h, DNP-tagged AR-PCC plus anti-DNP (words) [1]: also enhanced phagocytosis
phagocytosis at 1 h, DNP-tagged AR-PCC plus anti-DNP (words) ([1]; listed as cy(LLFFF)-R6): comparable to that of cy(LLFFF)-DNP
binding to MrkA protein in mouse sera (MrkA protein): binds MrkA protein in the context of sera; also recorded: bound MrkA protein in solutions of 10 and 100% mouse sera
binding selectivity towards MrkA-expressing K. pneumoniae cells versus E. coli and S. typhimurium [2]: similarly high selectivity
isocratic point (IP) [3]: ~40%
reduction (improvement) in IP versus cy(LLFFF) [3]: ~35%
stronger affinity to MrkA over cy(LLFFF) [4]: 22%
